From PMC8189435, “Timer-based proteomic profiling of the ubiquitin-proteasome system reveals a substrate receptor of the GID ubiquitin ligase” (Molecular Cell, 2021)

Target: T1, Gid1-tFT (chromosomally tagged Gid1-mCherry-sfGFP) (S. cerevisiae, UniProt P53076 1-958)
T1 construct: Gid1, subunit of the GID ubiquitin ligase complex, S. cerevisiae; endogenous locus tagged with mCherry-sfGFP; It was precipitated with anti-GFP antibodies from lysate, so other GID subunits are likely present with it; source: S. cerevisiae, chromosomally tagged (strain YMaM1083; YLZY0091 for gid5Δ), in lysate; not shown: mCherry-sfGFP timer (tFT), C-terminal, kept
T1 sequence (looked up): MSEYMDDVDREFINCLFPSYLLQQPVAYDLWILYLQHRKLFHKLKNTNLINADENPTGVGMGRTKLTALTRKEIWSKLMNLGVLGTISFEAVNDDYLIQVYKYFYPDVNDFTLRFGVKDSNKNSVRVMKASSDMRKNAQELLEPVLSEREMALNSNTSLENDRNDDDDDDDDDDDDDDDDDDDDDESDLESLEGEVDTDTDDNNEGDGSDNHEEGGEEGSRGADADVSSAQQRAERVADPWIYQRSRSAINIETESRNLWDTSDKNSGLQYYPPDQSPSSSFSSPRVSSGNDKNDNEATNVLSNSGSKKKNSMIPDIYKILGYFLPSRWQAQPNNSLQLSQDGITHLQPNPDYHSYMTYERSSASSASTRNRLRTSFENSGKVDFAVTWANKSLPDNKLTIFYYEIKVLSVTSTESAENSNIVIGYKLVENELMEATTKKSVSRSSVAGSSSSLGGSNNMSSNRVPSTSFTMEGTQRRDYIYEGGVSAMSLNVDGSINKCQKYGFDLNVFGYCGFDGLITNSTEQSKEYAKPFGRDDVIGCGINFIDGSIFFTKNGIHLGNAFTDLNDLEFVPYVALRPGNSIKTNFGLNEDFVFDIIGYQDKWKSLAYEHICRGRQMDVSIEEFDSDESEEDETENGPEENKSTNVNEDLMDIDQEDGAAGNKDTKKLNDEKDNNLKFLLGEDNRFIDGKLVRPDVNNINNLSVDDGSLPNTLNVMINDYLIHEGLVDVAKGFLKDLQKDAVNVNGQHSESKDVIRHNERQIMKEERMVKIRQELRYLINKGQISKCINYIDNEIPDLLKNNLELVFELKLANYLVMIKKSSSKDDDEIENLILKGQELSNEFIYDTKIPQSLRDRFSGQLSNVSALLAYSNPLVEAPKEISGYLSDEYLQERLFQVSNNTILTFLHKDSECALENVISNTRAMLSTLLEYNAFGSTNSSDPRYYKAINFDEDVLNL
Test: co-IP; tFT-tagged bait precipitated with rabbit anti-GFP on Dynabeads from yeast lysates (log phase, SC medium lacking histidine, 2% glucose); IP buffer 50 mM Tris-HCl pH 7.5, 100 mM NaCl, 1% Triton X-100, 2 mM EDTA; 2 h at 4°C; HA-tagged prey detected by anti-HA blot; WT or gid5Δ cells
Settings: partners not purified

B1: HA-Gid11 (Ylr149c/Gid11) (natural protein, S. cerevisiae, UniProt Q99296 1-730, looked up)
chain: MTIDGTGQSKEALQDERLNTGSDKVYQNYMMPALELYDAKVSINHWQLRDCIKPGSMNQSKLYYIYDHSIRVLDTDSSVLRSPVRRHNSIQPSNSGKNSTEKTSTKGSRTTGSYISKNLHVPSEKLVEFNFKPRCFTELNGLTVCGGLIGSDDKGFPSNWNRLAQDANISLPPPSQPINISKNISFPINSHYSNPNIWKGIVEFYNQETDTMMTFTLGQFINNCVTLYDRASMQFDLFACNNDGHLYQCDVSNRDVTLVKRYADLKFPLNNASLSHDGQTMVVSGDSNKFAVYNQNELTNQFSLHYDNHPSWGSSVNRVRRIPRFALPDESEYIENIYEAPNSDHGFYNSFSENDLQFATVFQNGTCAIYDIRNMATPMAEISSTRPHSHNGAFRVCRFSYGLDDLLFISEHQGRVHVVDTRNYVNHQVIVIPDKVNMEYINERKHNTNHNFTTNNNNENESNDSKNELQGADYRSLSRRRFSLPSMPNVTTEPWITMAQRIPKKYLEPQILPFPKVMDKISNESVLFSTKGSSSSDVAHPYKRRCSFRVRRVSTSAPTADYSNNNVNASLGTPAADSIATSSSNSAPQNLIDPLILSHQQASNDVFEDDEYYEAYNDVHSTYRVSSDYHGVSARAFESFLRPPSTPDLPSDDDNFAANSRNNRGTSNFLRRPVITTQESNEFSEENNISGIDWVEDRNGSSLIIGTDYGIMRWNINSWARRSFSSYDLC
notes: Gid11 (Ylr149c), S. cerevisiae, WD40/YVTN repeat-like domain protein; the last 4 residues are printed as 727-730, so the protein ends at residue 730; also called HA-YLR149C; source: S. cerevisiae, overexpressed from plasmid pRS413-GPDpr-HA-YLR149C, in lysate; not shown: HA, N-terminal, kept
Q: How did the “relative amount of co-immunoprecipitated HA-Gid11, normalized to precipitated Gid1-tFT, in gid5Δ cells compared with the WT” value turn out when B1 was run?
A: 0.43 relative to WT
